Measurements: patent US20180037631A1 (Bristol-Myers Squibb, published 2018)
Where “and” joins values, the source holds several entries; their conditions need not be identical. Equal values may be shown once. Read-outs that look alike come from different tables or passages of the source.

Legend:
[1] = target: T1, EGFR on the surface of human tumour cells (A431, H292) (human, UniProt P00533 25-1210); assay: cell-based or functional assay
[2] = target: T1, EGFR on the surface of human tumour …; assay: cell-based or functional assay; remark: listed apart in the source
[3] = target: T2, IGF-IR on human tumour cells (H292, MCF-7, RH41) (human, UniProt P08069 31-1367); assay: cell-based or functional assay
[4] = target: T1, EGFR on the surface of human tumour …
[5] = target: T3, Recombinant human EGFR-Fc (aa 1-645 of the extracellular domain of human EGFR fused to human Fc) (human, UniProt P00533 25-645)
T3 construct: range 1-645; bought from R&D Systems; also called EGFR645-Fc; EGFR-Fc (HER-1); not shown: human Fc

[6] = target: T4, IGF1R-Fc (extracellular domain of human IGF1R aa 1-932 fused to hinge and constant regions of human IgG1) (human, UniProt P08069 31-932)
T4 construct: range 1-932; made in house by transient transfection, purified on Protein A; also called IGF-IR-Fc; not shown: hinge and constant regions of human IgG1

[7] = target: T4, IGF1R-Fc (extracellular domain of human …); remark: listed apart in the source
[8] = target: T1, EGFR on the surface of human tumour …; remark: listed apart in the source
[9] = target: T2, IGF-IR on human tumour cells (H292, …); assay: cell-based or functional assay; remark: listed apart in the source
[10] = target: T3, Recombinant human EGFR-Fc (aa 1-645 of …); remark: listed apart in the source
[11] = target: T4, IGF1R-Fc (extracellular domain of human …); remark: listed apart in the source
[12] = target: T1, EGFR on the surface of human tumour …; remark: listed apart in the source
[13] = target: T1, EGFR on the surface of human tumour …; assay: cell-based or functional assay; remark: listed apart in the source
[14] = target: T2, IGF-IR on human tumour cells (H292, …); assay: cell-based or functional assay; remark: listed apart in the source

Row | Binder | A431 pEGFR IC50 (In-Cell Western) [2] | A431 pERK IC50 (In-Cell Western) [2] | H292 pEGFR IC50 (ELISA) [2] | H292 pIGF-IR IC50 (ELISA) [3] | IC50 [4] | Kd [5] | Kd [6] | IC50 [8] | Kd [10] | koff [10] | kon [10] | Kd [11] | koff [11] | kon [11] | IC50 [12] | other results
1 | E1-GS10-I1 pegylated, His-tagged (designed binder, 40 kDa branched PEG on the Cys of the C-terminal Cys tail, also called E1-GS10-I1 (with PEG)) MGVSDVPRDLEVVAATPTSLLISWVAGAEDYQYYRITYGETGGNSPVQEFTVPHDLVTATISGLKPGVDYTITVYAVTDMMHVEYTEHPISINYRTEIDKGSGSGSGSGSGSGSGSGSGSVSDVPRDLEVVAATPTSLLISWSARLKVARYYRITYGETGGNSPVQEFTVPKNVYTATISGLKPGVDYTITVYAVTRFRDYQPISINYRTEIDKPCQHHHHHH | 297 nM | 295 nM | 123 nM | 4 nM | 396 nM | 57.9 nM | 2.4 nM | 238 nM | – | – | – | – | – | – | – | inhibition of EGF induced EGFR phosphorylation, A431, IC50 [1]: 297 nM; inhibition of EGF induced ERK phosphorylation, A431, IC50 [1]: 295 nM; inhibition of EGFR activity, H292 cells, IC50 [1]: 123 nM; Kd [7]: 2.43 nM
2 | E3-GS10-I1 pegylated, His-tagged (designed binder, 40 kDa branched PEG on the Cys of the C-terminal Cys tail, also called E3-GS10-I1-Cys (with his)) MGVSDVPRDLEVVAATPTSLLISWLPGKLRYQYYRITYGETGGNSPVQEFTVPHDLRTATISGLKPGVDYTITVYAVTNMMHVEYSEYPISINYRTEIDKGSGSGSGSGSGSGSGSGSGSVSDVPRDLEVVAATPTSLLISWSARLKVARYYRITYGETGGNSPVQEFTVPKNVYTATISGLKPGVDYTITVYAVTRFRDYQPISINYRTEIDKPCQHHHHHH | 42 nM | 40 nM | 10 nM | 6 nM | 80.5 nM | 10.4 nM | 0.74 nM | 89 nM | – | – | – | – | – | – | – | inhibition of IGFR activity, H292 cells, IC50 [9]: 6 nM
3 | E3-GS10-I1, non-pegylated (designed binder) VSDVPRDLEVVAATPTSLLISWLPGKLRYQYYRITYGETGGNSPVQEFTVPHDLRTATISGLKPGVDYTITVYAVTNMMHVEYSEYPISINYRTEIDKGSGSGSGSGSGSGSGSGSGSVSDVPRDLEVVAATPTSLLISWSARLKVARYYRITYGETGGNSPVQEFTVPKNVYTATISGLKPGVDYTITVYAVTRFRDYQPISINYRTEIDKPSQ | 14 nM | 12 nM | 7 nM | 6 nM | 25 nM | 0.7 nM | 0.1 nM | – | 0.66 nM | 0.000229 s⁻¹ | 349000 M⁻¹ s⁻¹ | 0.12 nM | 0.000209 s⁻¹ | 1.8e+06 M⁻¹ s⁻¹ | – | –

Second part, led by results:

Row | A431 pEGFR IC50 (In-Cell Western) [2] | A431 pERK IC50 (In-Cell Western) [2] | H292 pEGFR IC50 (ELISA) [2] | H292 pIGF-IR IC50 (ELISA) [3] | IC50 [4] | Kd [5] | Kd [6] | IC50 [8] | Kd [10] | koff [10] | kon [10] | Kd [11] | koff [11] | kon [11] | IC50 [12] | Binder | other results
4 | 36 nM | 51 nM | 30 nM | 1 nM | 51 nM | 3.8 nM | 0.8 nM | – | 10.2 nM and 7.53 nM | 0.000389 s⁻¹ and 0.000474 s⁻¹ | 38200 M⁻¹ s⁻¹ and 62900 M⁻¹ s⁻¹ | 0.66 nM | 0.000338 s⁻¹ | 513000 M⁻¹ s⁻¹ | 14.6 nM | E1-GS10-I1, His-tagged, non-pegylated (designed binder, bispecific EGFR/IGF-IR tandem of two 10Fn3 domains) MGVSDVPRDLEVVAATPTSLLISWVAGAEDYQYYRITYGETGGNSPVQEFTVPHDLVTATISGLKPGVDYTITVYAVTDMMHVEYTEHPISINYRTEIDKGSGSGSGSGSGSGSGSGSGSVSDVPRDLEVVAATPTSLLISWSARLKVARYYRITYGETGGNSPVQEFTVPKNVYTATISGLKPGVDYTITVYAVTRFRDYQPISINYRTEIDKPSQHHHHHH | inhibition of EGF-stimulated EGFR phosphorylation (Y1068), H292 cells, ELISA, IC50 [1]: 20 nM; inhibition of IGF1-stimulated IGF1R phosphorylation (Y1131), H292 cells, ELISA, IC50 [9]: 4 nM; inhibition of RH41 cell proliferation, IC50 [9]: 9 nM
5 | – | – | – | – | – | – | – | – | 4.8 nM and 10.3 nM | 0.000603 s⁻¹ and 0.000425 s⁻¹ | – | 0.27 nM | 0.000398 s⁻¹ | 1.47e+06 M⁻¹ s⁻¹ | 7 nM | I1-GS10-E1, His-tagged, non-pegylated (designed binder) MGVSDVPRDLEVVAATPTSLLISWSARLKVARYYRITYGETGGNSPVQEFTVPKNVYTATISGLKPGVDYTITVYAVTRFRDYQPISINYRTEIDKGSGSGSGSGSGSGSGSGSGSVSDVPRDLEVVAATPTSLLISWVAGAEDYQYYRITYGETGGNSPVQEFTVPHDLVTATISGLKPGVDYTITVYAVTDMMHVEYTEHPISINYRTEIDKPSQHHHHHH | IC50, EGF-stimulated EGFR phosphorylation, A431 cells, In Cell Western [13]: 93 nM; IC50, EGF-stimulated EGFR phosphorylation, H292 cells, ELISA [13]: 42 nM; IC50, EGF-stimulated ERK phosphorylation, A431 cells, In Cell Western [13]: 99 nM; IC50, IGF1-stimulated IGFR phosphorylation, H292 cells, ELISA [14]: 1 nM
